Measured values as given in patent US20090143311A1 (published 2009).

Assays:
[1] = molecular target: angiotensin I converting enzyme (ACE); assay: cell-based or functional assay
[2] = molecular target: angiotensin I converting enzyme (ACE); assay: cell-based or functional assay; remark: listed apart in the source

| IC50 value in µM, Modified Matsui assay (ACE inhibition, cleavage of Hip-His-Leu) [1] | IC50 value in µM, at-line ACE assay (ACE inhibition, cleavage of hippuryl-His-Leu) [1] | IC50 value in the Modified Matsui test (ACE inhibition) [2] | Binder |
| --- | --- | --- | --- |
| 2 µM | 7.1 µM |  | IPP [tripeptide IPP] |
| 0.4 µM | 3.8 µM | 0.5 µM | MAP [tripeptide Methionine-Alanine-Proline (Met-Ala-Pro)] |
| 10 µM | 50 µM |  | ITP [tripeptide Isoleucine-Threonine-Proline (Ile-Thr-Pro)] |
